# Experimental data published in US20110243992.
# Tested on: iron co-factored superoxide dismutase (SodA) of M. tuberculosis/BCG, wild type, as produced by BCG
substance,measurement,value
mutant SodA ΔE54 (also contains H28R substitution),"total SOD activity, 3D-BCG (ΔE54 SodA mutant put into DD-BCG) versus DD-BCG",FIG. 16; 16-fold reduction
same,"total SOD activity, ΔE54 SodA mutant in BCG or SIG-BCG","FIGS. 4, 14; 2- to 4-fold reduction"
